Patent EP1481685A1
Like-named read-outs stand apart in the source and are kept apart here.

Columns and labels:
Assay in all cases: cell-based or functional assay
[1] = target: adenylyl cyclase (AC) in rat dorsal root ganglia (DRG) lysates (predominant isoforms AC type 4 and 6)
[2] = target: adenylyl cyclase (AC) in rat spinal cord lysates / membranes (major isoforms AC type 5 and 6)
[3] = target: adenylyl cyclase (AC) in rat spinal cord lysates / membranes (major isoforms AC type 5 and 6); remark: listed apart in the source

inhibition of Gαs-stimulated AC activity, DRG lysates, 30 nM PAM (% inhibition at 30 nM) [1]: 32 | inhibition of Gαs-stimulated AC activity, spinal cord lysates from animals treated 1 hour with formalin, 30 nM PAM (% inhibition at 30 nM) [2]: 25 | inhibition of Gαs-stimulated AC activity, spinal cord lysates from rats 96 hours after zymosan injection, 30 nM PAM (% inhibition at 30 nM) [2]: 70 | inhibition of Gαs-stimulated AC activity, spinal cord lysates of control animals, 30 nM PAM (% inhibition at 30 nM) [2]: 49 | inhibition of Gαs-stimulated AC activity, spinal cord preparations of zymosan-treated animals [2]: 75 % inhibition | inhibition of Gαs-stimulated AC activity, spinal cord lysates of control animals, 30 nM PAM (% inhibition at 30 nM) [3]: 50
Substance: PAM (Protein Associated with Myc), full length, purified from HeLa cells (from UniProt O75592 1-4678)
